This data set in a line: soluble on expression in E. coli; label from the status in PepcDB or PDB records.
As for “MGSDKIHHHHHHMVLVVAGFDPSGGAGIIQDVKVLSALGVKTHAVISALTVQNENRVFSVNFRDWEEMRKEIEVLTPPRVIKVGLSAPETVKRLREMFPDSAIVWNVVLESSSGFGFQDPEEVKKFVEYADYVILNSEEAKKLGEYNNFIVTGGHEKGNTVKVKYRDFVFEIPRVPGEFHGTGCAFSSAVSGFLAMSYPVEEAIRSAMELLKKILERSSGVVETEKLLRDWYRYDTLNTLDEILPEFLEIGHLTVPEVGQNVSYALPWAKNEFEVGKFPGRIRLKEGKAVAVSCASFKDRSHTARMAVTMMRYHPHMRCVVNVRYEREYVERAKKRGLKVFHYDRSKEPKEVQEKEGQSMVWMIEQAIAELKSPPDVIYDEGWWGKEAMIRVFGRNPKEVLEKIKLMVRE”, the “soluble on expression in E. coli” value is given as “not soluble”.
For the sequence “MGSDKIHHHHHHMTQLFLHSDTPNEKELISIYEKAVSEAVELYIFSAYLTHWDVKNKLNSKLQEFKFIFGQDFGLSKKEAIRKVLKWLPSHLKFTLMVAQGIQGFHPKAVFWKNDKNEYYALIGSSNLTHAAFNSNYEANILTKISEQDFIKVKSWADEIAMKSIPVSEDWLEEYQEAEINYKKSTVRQSVMDKLFMEMPNYNQELIAARRKQMRNHQTVCNQLKNLIKQCAAGKIDNNDFYGEFNKLWSWKSENKGEGVGNRFQDKTWKRTGKSSDFRKLCIAIQSVFDAPLTERDNVVAKQIDWLKECGVSTRGSVFSEMLCQEYPDRYPVLNAPIKKFLEENKFKSAKGASEGSKYIDLSMKLRALLAMQSEIKDLAELDVLVQAEYRNRTDIDWE”, the “soluble on expression in E. coli” value was “not soluble”.
As for “TVEDSESDMDDAKLDALMGNEGEEEEDDLAEIDTSNIITSGRRTRGKVIDYKKTAEELDKKE”, the entry is “soluble”.
As to “MGTYVEPSKLSYGEYLESWFNTKRHSVGIQTAKVLKGYLNSRIIPSLGNIKLAKLTSLHMQNYVNSLRDEGLKRGTIEKIIKVIRNSLEHAIDLELITKNVAAKTKLPKADKEELEHHHHHH”, the “soluble on expression in E. coli” value is “not soluble”.
As for “MSLKQYLITGGTGMVGSQLVNEIKKSDSHITILTRHDQISNDKKISYVNWAKSGWEHKVPQNIDVVINLAGATLNKRWTPEYKQTLMLSRIQSTQALYELFKSRNKAPKVLFNASATGYYPPDLFMSYTEVYKTLPFDFLSDIVYQWERFAQQFEQLGTRVVIGRFGMILSNEGGALQTMKLPYKYYIGGKLGSGQQWYSWIHINDLIQAILFLINNESASGPFNLTAPIPERQNLFGYTLARAMHKPHETWAPSLAMRLILGQMSTVVLDTQKVLPNKIQALGFQFKYSNLKMALEDLIKEGHHHHHH”, the entry is “soluble”.
Regarding “VKVRYENDKYLIPFASLDANQRMEFDLKDPQGKVILLAGKKLTSRKIKELKENHLEWVEYPMDILLNRHLAEPVMVGKEVLLDMLTQLDKNKLEKIHDLG”, the “soluble on expression in E. coli” value is reported as “not soluble”.
As for “MKIDASRRGILTGCWRKASNGIRPPWSGDESHFLTHCTRCDACINACENNILQRGTGGYPSVNFKNNECSFCYACAQACPESLFSPRHTRAWDLQFTIGDACLAYQSVECRRCQDSCEPMAIIFRPTLSGIYQAQLNSQLCNGCGACAASCPVSAITAEYLHAH”, the entry is “not soluble”; as for “MGSDKIHHHHHHMQPLAFRMRPRTIEEIVGQQHLVGPGKIIDRMVKAKLLSSMILYGPPGTGKTSIASAISGSTKYAFRILNAATDSKKDLQIVAEEAKMSGTVILLLDEIHRLDKTKQDFLLPHLENGNIILIGATTENPYININPAIRSRTQIFEVKPLQPDEIKKAVLAAIKDSSRGLGELPIVIDEDALKFVSESTNGDLRSALNAVELAARSTGPDENQKIHLTLAILEECLQKRALTQDKDGDAHYDVISAFQKSIRGSDTDAALHYMARLLESGDLQSVIRRLLIIAYEDIGLANPPACQRTVSAVTAAEHVGLPEARIPLADAVIELCVSPKSNSGISAIDNALTDVRTGKIGEVPDHLRDSHYKGAAALGRGVDYKYPHNYPNDWIAQQYLPDKLVDAAYFDAKGNSTYEEKIKNRYESLKKSQRSNH”, “not soluble”; as for “KRAVDARTVGRMIRMSGCPDESASAKAVDWFVLMFMLRGIPFVDLAHLRRSNLDKGVLTYCRHKTGQEVSISVPREAMEIINRRMVENCHPSYLLPILGQPRTRKRHTKKALTPYQEYQYALRNLNRRLERVSVDLRLGGRLSSYTARHTWATIAFHQETPVGVISRGLGHSSVKVTETYLKPFGDREVDRTNRKILNYVLNAV”, “not soluble”.
Consider “MGSDKIHHHHHHMRKISIVIPVYNTEKYLKLSVDSVLSQSYQDWELILVDDGSKDGSGAICDKYASEDSRIKVYHTVNQGVTAARGYGVEQSTGEWICFLDADDTLADDALQVMLGKSADCDIVIGNKRIVSGNDVTEEWMNQDDRQLQAVEFLDGLIRNKISQYITGRIFRRILFDNGTICIPRELIMAEDFIMNVQLGNKAKKIAVIRDMVYGYHVYGESVSHTFRTNLEYESRFCDCLFSALKTGGYYEEVKEAFTFQKVRALKSAFMAQQGRVNLRHPFLQEVRKEAKSIGLSRGWKLFLYLLPLKYIGYIFFRSLNK”, for which the “soluble on expression in E. coli” value is “not soluble”.
Take “MGSDKIHHHHHHMSTLRLLISDSYDPWFNLAVEECIFRQMPATQRVLFLWRNADTVVIGRAQNPWKECNTRRMEEDNVRLARRSSGGGAVFHDLGNTCFTFMAGKPEYDKTISTSIVLNALNALGVSAEASGRNDLVVKTVEGDRKVSGSAYRETKDRGFHHGTLLLNADLSRLANYLNPDKKKLAAKGITSVRSRVTNLTELLPGITHEQVCEAITEAFFAHYGERVEAEIISPNKTPDLPNFAETFARQSSWEWNFGQAPAFSHLLDERFTWGGVELHFDVEKGHITRAQVFTDSLNPAPLEALAGRLQGCLYRADMLQQECEALLVDFPEQEKELRELSAWMAGAVR”: the “soluble on expression in E. coli” value is reported as “not soluble”.
For the sequence “EHQAILSKRLESVESDIRLEQNTMDMTRIDARKMQMTGDLIMKNSVTVGGIAGASGQYAATQERSEQQISQVNNRVASTASDEARESSRKSTSLIQEMLKTMESINQSKASALAAIAGNIRA”, the “soluble on expression in E. coli” value is given as “not soluble”.
With “MGSDKIHHHHHHMITNTHLLISYIVYKNLYNNFNFKLDMAAFALGNIKPDFINKEIKCSHTLNESLDSLIEYSNKLVKYNNSIRKFSLALGIVCHYICDYFCIYHRDGNEKKGILEHLIYEVKLDSNFTMMFLKGKLNYFGCRDYGGSIKKIIFNIEKEYKLEEKDFKRDIKYALFAAIESSKFIVYSSKLYGN”, the “soluble on expression in E. coli” value is listed as “not soluble”.
As for “MGSDKIHHHHHHMIIGDKRLDVIHNIKQAANERNFTAKTEIGDPVMSSEEKLALVEGFWQKQDQAKTKFDGTVGHELLQLLTKTISGSTKVNGLGKLKGLPKGGAIVTANHFNQVDALAVNRLAQKAHRRMDIVIEDTNLMLPGFFSYIMNNMGSIPLTQSPNYLGREFIQHLNQAFNQNHWVLIFPEQEMWWNYRKPRKPQRGAYYFAAKCNVPVISTFVEIQDLPKLEKQNEHFYQTRYTVHVLDVLYPDPTKTASENASRLMEEDYKLKVQAYERVYKKKLDYDFTSWDIAGWRGE”, the “soluble on expression in E. coli” value was “not soluble”.
As for “MYIVIAGGGEMGGELARALEKTHDVVVIDRNPQARERFASLDVKVVVGGATDPDTLREAGVDRADLFVASTDSDEINLLASLLAKGLGAKEAFCFVGKGGYVEVLTDPRTAEILGTRIDRVLWPQRAMAREIVEVILVPWAVDTEVLAGGRLRFVEYRVKEGGEYVHRLLSGEKWPEGVLLAGVVREGTFLSFAHPEFPELILEPGDKLLFVATQKAFSELAAYFTEGPGVRRVMVIGGGNVGFMVAQGLLKRRVEVVIVERNAERCQWLSEELPGALVIQGDGTDIELLEAEGMAEADAVVAVTDHDEKNLLASLLAKQMGVRKVITRVSRSETRRLFEQVGIDLALTPRQAAVREVLDWIGPENVEHIATLDESIEVLEVLVSEGAAPKALRDLVRPDAVPVALERDHRIFLYEEGLGLLPGDRLYLVAAREVADEVLAPFFPE”, the entry is “soluble”; as for “GFRWASNATFTLNRNKVKRLAGGSTNPVTGELIDMPNMPVGWLGKENVAPRVILTEGGTMTDIYVYNELTKDNNGNIKVDAQTGGLSMHTAETPTKVGNLNANYNLGWTNNFTYKGINLGVVLSARVGGLAYSATQGVLDYYGVSSITANARDNKGVPMNNGKVDTQKYYQTIGTGEGGYGRYYLYSATNVRLQELSLSYTLPKKWLNNVANVTFGLVGRNLWMIYCKAPFDPELSASTSSNYYMNVDYFMQPSMRNIGFNVKVQF”, “not soluble”.
In the case of “MIQIVRDNFPGLETAEQLEDYKKTVIKNIERKTALFTKSDNGNIVGVLIFSYYSKCLSCMAVHPDYRKMGIGYAMVKKMIDLFPKDMDISVTTFREGDLKGVAPRAPYKKIGFLEDEFVEEFNYPHQKFIFRNRP”, the “soluble on expression in E. coli” value is given as “not soluble”.
Regarding “MSLNQKDPVTDDITGGWYEQDIRQLAARGIMQGEGNGKYFPERLVTRAEFATLITRALQLPSGNAKFTDLEQVHPSLRDGINRAASAGIIRGRGDNTFDPNTTITREEAVIMIDRSLKHAGIFAKQVELPFVDQNLIYAKQEVQRVYGFGIVKGNEFNQFVPKGPSQRAHAAAFINRMLSVIEAEGHHHHHH”, the “soluble on expression in E. coli” value was “soluble”.
As for “MTGSCSDLLGFQYNNTVISSATLQETGTLTVANKPIGAHCLVKGYMDQHVSPVDGQTYQIGFEMRLPIDWNGRFLYQGNGGTDGNLVPATGQVGSGGPLTNALHDGFAIISSDAGHNASQNPMFGLDPQARINYGYGAITKLTPMAKNLIKAAYGKLPDRSYAGGTSNGGRHAMIAATRLGDQYDGILASTPGFHLPRAAAAQLYTAQQLRRVATDENDLSTALTLPERKVLAKAILDRCDALDGVTDGLVQDVEACRTAFDIHKHVTVCSSTRDGTCLSTEQIDVLANIYRGPVNSAGQALYATQPFDPGLVGSNWASWKFESSVGTARDPVAVGILFQVPPDPTVTQNSRQFALNFNFDTDYPKLSATNDVYTESSMSFMMPPDELNLDKLRNHGGKMIVVQGTADGVFSVDDTQNWYDQLLQHYKNDAKGTAPEFARFFRVPGMNHTRDGIATDQFDALTALVNWVEYGQAPDKIIATARGAGNPSGQVNTEIPQDWAPDRTRPLCPYPLIARYNGQGDLEHHHHHH”, the entry is “not soluble”.
As to “MRKILVVGAGQSGLQLALGLQSHGYEVTLMSNRTADEIRTGRVMSTQCMFHTALQHERDLQLNFWESQAPKIEGLGVSVAAPGSFDPGPSQRAIDWLGHLDGFAQSVDQRVKMAGWMETFAQRGGQLVIHGAAVGDLDYFSRAYDLVLVSAGKGELVQMFGRDAERSPYSEPQRALAVAYVHGMGPRPEHPETEAVRCNLVPGVGEMFIMPTFTTSGRADILFWEGIPGGPLDAFKDVKDPAEHLSLTLELMEKFLPWEYARATKVELTDAGGTLAGRYAPTVRNPVGRLPGGGAVLGVADVVVANDPITGQGSNSASKCAASYLASIIEHGDQEFDETWMRQTFDRYWETAQHVTKWTNTMLAPPPEHILNLFGAATQLQPIADRFANGFNDPSDFENFFYDPAKTEGYLAEVSGAAGALEHHHHHH”, the “soluble on expression in E. coli” value is given as “not soluble”.
For “MQLPPVHSVSLSEYFVSGNVIIHETAVIAPGVILEAAPDCQITIEAGVCIGLGSVISAHAGDVKIQEQTAIAPGCLVIGPVTIGATACLGSRSTVFQQDIDAQVLIPPGSLLMNRVADVQTVGASSPTTDSVTEKKSPSTANPIAPIPSPWDNEPPAKGTDSPSDQAKESIARQSRPSTAEAAEQISSNRSPGESTPTAPTVVTTAPLVSEEVQEKPPVVGQVYINQLLLTLFPERRYFSS”, the “soluble on expression in E. coli” value was “not soluble”.
